Results as given in article PMC2702000 (PLoS Pathogens, 2009).

B1: ETM peptide, transmembrane domain of SARS-CoV E (residues 8-38) (peptide)
chain: ETGTLIVNSVLLFLAFVVFLLVTLAILTALR
B2: synthetic ETM spanning residues 7-42 of SARS-CoV E (peptide)
chain: EETGTLIVNSVLLFLAFVVFLLVTLAILTALRLCAY
B3: full length SARS-CoV E protein (natural protein)
chain: MYSFVSEETGTLIVNSVLLFLAFVVFLLVTLAILTALRLCAYCCNIVNVSLVKPTVYVYSRVKNLNSSEGVPDLLV

Tests used:
[1] = target: the molecule itself; assay: solution NMR structure (inter-monomer NOEs, PRE, RDCs)
AUC = target: the molecule itself; assay: AUC

Protein | binding result [1] | stoichiometry N (AUC)
B1 | binds | –
B2 | – | 5
B3 | – | 5
